This passage reports stoichiometry N results from publication PMC11392913.

What is called stoichiometry N is the number of molecules, sites or subunits per partner or assembly.

For the assay, the target named is H. pylori PflB_(Δ140), the periplasmic α-helical domain of paralyzed flagellum protein B (Helicobacter pylori (strain SS1)). Kind of assay: SEC; Superdex 200 10/300 GL, 20 mM Tris-HCl pH 8.0, 150 mM NaCl, 10% glycerol, 4 CMC LDAO; mass from a calibration with globular standards. (In general: SEC sorts molecules by how far they enter the pores of the column.)

In turn, “H. pylori PflB_(Δ140), the periplasmic α-helical domain of paralyzed flagellum protein B (domain or fragment)” returned a stoichiometry N greater than 4.
